Measurements from paper PMC11429203 (Biomimetics, 2024).

B1: ACSAG (A-pep) (peptide)
peptide: ACSAG
notes: Unconjugated peptide (no DOX, no fluorescein) in the SPR and antibody-staining experiments; also called ACSAG peptide; source: synthetic peptide, custom-ordered from GenScript
B2: ACSAGLPHVLTPEAGATGASCA (Trimer-pep) (peptide)
peptide: ACSAGLPHVLTPEAGATGASCA
notes: Newly designed fusion peptide of 22 residues; also called fusion trimer peptide; source: synthetic peptide, custom-ordered from GenScript

Target: T1, human FGFR2 protein (His-tag) residue 403-822 (human, UniProt P21802-3 403-822)
T1 construct: fibroblast growth factor receptor 2 (FGFR2), human, residues 403-822 (cytoplasmic part with the kinase domain); docking used residues 461-763 of PDB 7OZY, another construct; also called FGFR2 kinase domain; FGFR2 protein kinase domain; source: bought: Thermo Fisher Scientific
T1 sequence (P21802 402-821): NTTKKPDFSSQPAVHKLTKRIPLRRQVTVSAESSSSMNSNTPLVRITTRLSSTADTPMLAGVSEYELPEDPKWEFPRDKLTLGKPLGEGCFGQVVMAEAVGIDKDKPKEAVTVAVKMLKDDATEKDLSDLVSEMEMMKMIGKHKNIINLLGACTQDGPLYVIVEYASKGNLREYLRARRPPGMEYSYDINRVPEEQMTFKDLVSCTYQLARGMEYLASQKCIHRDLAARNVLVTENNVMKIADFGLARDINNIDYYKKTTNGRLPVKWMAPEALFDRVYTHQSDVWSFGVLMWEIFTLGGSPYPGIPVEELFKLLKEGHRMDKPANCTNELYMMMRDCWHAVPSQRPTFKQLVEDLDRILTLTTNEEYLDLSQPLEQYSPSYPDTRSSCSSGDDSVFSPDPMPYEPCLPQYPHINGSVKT
Experiment: SPR; FGFR2 (10 µg/mL) coupled through NHS/EDAC to 11-mercaptoundecanoic acid on gold chips; peptides flowed at 50 nM, 100 nM, 1 µM, 50 µM and 100 µM in 1X PBS, 30 µL/min, 2000 s; KD by non-linear regression, mean of three runs
Details: both partners purified

| Binder | Kd [µM] |
| --- | --- |
| B1 | 14.1 |
| B2 | 7.53 |
